One substance from paper PMC5821459 can be followed below.

This assay addresses L1 ORF2p-3xFLAG (ORFeus-Hs, pLD401, WT) (human) (UniProt O00370). As to the kind of experiment: affinity purification with mass spectrometry; On-bead RNase-sensitivity assay: ORF2p-3xFLAG (pLD401) captured on α-FLAG magnetic medium from HEK-293T_LD extract in 20 mM HEPES-Na pH 7.4, 500 mM NaCl, 1% Triton X-100; medium treated with RNases A and T1 or with BSA, 30 min RT; retained material eluted with LDS; label-swapped SILAC.
UniProt O00370, sequence (O00370 whole entry): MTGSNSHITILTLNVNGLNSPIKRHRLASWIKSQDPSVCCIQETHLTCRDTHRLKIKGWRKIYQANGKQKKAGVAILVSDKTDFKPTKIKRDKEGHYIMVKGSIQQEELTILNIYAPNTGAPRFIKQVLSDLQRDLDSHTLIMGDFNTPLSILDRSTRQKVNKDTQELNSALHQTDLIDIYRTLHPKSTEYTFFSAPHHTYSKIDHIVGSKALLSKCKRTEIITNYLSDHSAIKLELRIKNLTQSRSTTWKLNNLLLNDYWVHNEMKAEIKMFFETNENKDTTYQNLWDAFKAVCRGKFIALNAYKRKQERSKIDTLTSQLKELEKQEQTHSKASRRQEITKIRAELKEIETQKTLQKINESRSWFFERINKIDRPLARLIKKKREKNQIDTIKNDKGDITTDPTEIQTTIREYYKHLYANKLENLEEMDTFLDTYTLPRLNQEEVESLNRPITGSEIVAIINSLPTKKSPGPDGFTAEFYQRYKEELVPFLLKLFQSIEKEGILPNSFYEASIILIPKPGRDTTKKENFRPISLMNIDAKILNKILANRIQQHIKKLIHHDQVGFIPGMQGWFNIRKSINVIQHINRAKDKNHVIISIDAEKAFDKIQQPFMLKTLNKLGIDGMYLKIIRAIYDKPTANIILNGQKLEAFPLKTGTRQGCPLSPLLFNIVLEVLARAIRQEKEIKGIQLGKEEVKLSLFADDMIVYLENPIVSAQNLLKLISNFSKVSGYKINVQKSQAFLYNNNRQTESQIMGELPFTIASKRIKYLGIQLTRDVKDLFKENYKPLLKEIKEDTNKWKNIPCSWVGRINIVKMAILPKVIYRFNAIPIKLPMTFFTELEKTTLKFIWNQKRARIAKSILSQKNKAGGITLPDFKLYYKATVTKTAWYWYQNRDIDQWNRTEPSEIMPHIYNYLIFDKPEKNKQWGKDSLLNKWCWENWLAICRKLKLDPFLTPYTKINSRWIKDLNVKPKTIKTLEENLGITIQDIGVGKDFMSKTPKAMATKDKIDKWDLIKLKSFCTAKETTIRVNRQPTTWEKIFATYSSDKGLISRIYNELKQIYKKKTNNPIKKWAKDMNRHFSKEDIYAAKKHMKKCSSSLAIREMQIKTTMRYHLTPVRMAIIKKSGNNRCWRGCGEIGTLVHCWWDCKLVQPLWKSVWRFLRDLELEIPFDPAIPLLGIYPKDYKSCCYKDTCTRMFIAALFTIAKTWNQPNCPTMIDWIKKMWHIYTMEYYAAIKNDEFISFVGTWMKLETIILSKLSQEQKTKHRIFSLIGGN

With “Regulator of nonsense transcripts 1 (from UniProt Q92900 1-1129) (natural protein)”, the RNase sensitivity relative to that of MOV10 came to 62%.
